# In the supplement of paper PMC7877785:
# ± gives the uncertainty stated by the source.
# Test: self-splicing fitness, log relative to wild type (ln ratio); higher = more splicing; Tetrahymena group I intron in knt gene, E. coli kanamycin selection, DiMSum; sequences stand for … in CUCUCU…GGAGGGAAAAGUUAUCAGGCAUGCACCUGGUAGCUAGUCUUUAAACCAAUAGAUUGCAUCGGUUUAAAAGGCAAGACCGUCAAAUUGCGGGAAAGGGGUCAACAGCCGUUCAGUACCAAGUCUCAGGGGAAACUUUGAGAUGGCCUUGCAAAGGGUAUGGUAAUAAGCUGACGGACAUGGUCCUAACCACGCAGCCAAGUCCUAAGUCAACAGAUCUUCUGUUGAUAUGGAUGCAGUUCACAGACUAAAUGUCGGUCGGGGAAGAUGUAUUCUUCUCAUAAGAUAUAGUCGGACCUCUCCUUAAUGGGAGCUAGCGGAUGAAGUGAUGCAACACUGGAGCCGCUGGGAACUAAUUUGUAUGCGAAAGUAUAUUGAUUAGUUUUGGAGUACUCGUGGUCG
# Method in brief: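 Library with all eight P1ex-region intron nucleotides randomised, intron inside the knt kanamycin-resistance gene on pET-22b(+), in E. coli BL21(DE3). Cells grew overnight at 37°C or 30°C on LB agar with or without 25 μg/mL kanamycin (plus 100 μg/mL carbenicillin, 50 μM IPTG, 0.2% rhamnose), in six replicate transformations. Pooled colonies were amplicon-sequenced on Illumina HiSeq 2500. DiMSum fitness is the error-weighted combination of wild-type-normalised replicate fold changes, kanamycin versus none.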
Sequence,self-splicing fitness (ln) (30 °C),self-splicing fitness (ln) (37 °C)
AAGCAGCAAUAUUACGGUCG,-1.34 ± 0.061,-0.879 ± 0.093
GUAGAGCAAUAUUACGACAC,-0.732 ± 0.15,0.357 ± 0.2
GGCAAGCAAUAUUACGAUCU,-0.22 ± 0.097,-0.162 ± 0.13
UACUAGCAAUAUUACGUUGU,-2.48 ± 0.17,-2.21 ± 0.17
UGGGAGCAAUAUUACGGUUA,-3.22 ± 0.37,-1.65 ± 0.16
GAGAAGCAAUAUUACGGCCG,-0.178 ± 0.17,-0.256 ± 0.34
GUAUAGCAAUAUUACGGUCC,-0.391 ± 0.28,-1.19 ± 0.46
UCAUAGCAAUAUUACGUCCU,-3.7 ± 0.25,-1.18 ± 0.14
CCAGAGCAAUAUUACGUACG,-1.46 ± 0.12,-0.669 ± 0.13
CGCUAGCAAUAUUACGAGUU,-2.49 ± 0.1,-2.38 ± 0.15
AUGCAGCAAUAUUACGUGGC,-4.09 ± 0.28,-2.53 ± 0.19
AUUAAGCAAUAUUACGCUCG,-0.344 ± 0.11,0.171 ± 0.15
ACAGAGCAAUAUUACGACUA,-1.17 ± 0.48,-1.17 ± 0.42
ACUGAGCAAUAUUACGGCGC,-1.09 ± 0.088,-0.47 ± 0.11
UAACAGCAAUAUUACGUGAA,-1.61 ± 0.065,-0.749 ± 0.083
UUUCAGCAAUAUUACGCGCU,-3.54 ± 0.5,
AAAGAGCAAUAUUACGGUCA,-1.91 ± 0.21,-1.3 ± 0.17
UUACAGCAAUAUUACGGUUC,-1.97 ± 0.1,-1.32 ± 0.11
UUUAAGCAAUAUUACGUGGA,-1.99 ± 0.18,-1.56 ± 0.2
CAAGAGCAAUAUUACGCCCU,-2.51 ± 0.49,-2.72 ± 0.44
AGUGAGCAAUAUUACGGUAA,,-1.43 ± 0.34

Sequence,self-splicing fitness (ln) (30 °C),self-splicing fitness (ln) (37 °C)
CACUAGCAAUAUUACGGGGG,-2.43 ± 0.18,-1.5 ± 0.17
GGCAAGCAAUAUUACGACUU,-0.555 ± 0.082,0.226 ± 0.083
GACUAGCAAUAUUACGUCAC,-3.36 ± 0.4,
AGAUAGCAAUAUUACGCGAU,-2.53 ± 0.25,-2.15 ± 0.27
CCCUAGCAAUAUUACGCACG,-3.98 ± 0.37,-1.74 ± 0.18
GUCGAGCAAUAUUACGUAGC,-1.18 ± 0.16,-0.606 ± 0.22
GGCCAGCAAUAUUACGGACA,-0.666 ± 0.12,-1.01 ± 0.17
AUAUAGCAAUAUUACGCGUA,-1.11 ± 0.19,-0.256 ± 0.13
CGCCAGCAAUAUUACGUUAA,-3.31 ± 0.22,-2.57 ± 0.17
GUAAAGCAAUAUUACGAUGG,-1.81 ± 0.081,-0.952 ± 0.1
CUUUAGCAAUAUUACGGACA,-2.76 ± 0.38,-1.44 ± 0.28
CCGCAGCAAUAUUACGACGA,-0.105 ± 0.077,-0.259 ± 0.084
GACUAGCAAUAUUACGCGUU,,-3.83 ± 0.39
GUCCAGCAAUAUUACGGGUG,-0.386 ± 0.052,0.0761 ± 0.067
GGCCAGCAAUAUUACGUUCU,-0.00519 ± 0.082,0.108 ± 0.089
CCAAAGCAAUAUUACGUAUG,-0.512 ± 0.059,-0.574 ± 0.093
ACAUAGCAAUAUUACGCGGC,-3.77 ± 0.18,-2.8 ± 0.3
GAUUAGCAAUAUUACGGUUG,-1.43 ± 0.12,-1.02 ± 0.15
UCGAAGCAAUAUUACGUGUA,-2.47 ± 0.17,-1.71 ± 0.18
UAUUAGCAAUAUUACGGGAA,-0.606 ± 0.27,-1.45 ± 0.31
AGAAAGCAAUAUUACGGAUU,-2.21 ± 0.14,-0.867 ± 0.16

Sequence,self-splicing fitness (ln) (30 °C),self-splicing fitness (ln) (37 °C)
CAGCAGCAAUAUUACGGCCU,-0.922 ± 0.1,-0.208 ± 0.12
AUGUAGCAAUAUUACGUUAU,-2.41 ± 0.22,-2.12 ± 0.22
GAAAAGCAAUAUUACGAGUU,-1.15 ± 0.073,0.164 ± 0.094
UAAUAGCAAUAUUACGGCCC,-2.07 ± 0.34,-0.336 ± 0.46
UACGAGCAAUAUUACGAUGA,-2.05 ± 0.19,-2.41 ± 0.2
GGCAAGCAAUAUUACGCCCG,-2.21 ± 0.45,
AUCUAGCAAUAUUACGCGGU,-2.85 ± 0.18,-2.73 ± 0.26
AUCAAGCAAUAUUACGCCAU,-2.88 ± 0.19,-1.44 ± 0.13
CUCAAGCAAUAUUACGGCCG,-1.2 ± 0.13,-1.69 ± 0.24
CGUCAGCAAUAUUACGUUAG,-0.494 ± 0.065,-0.365 ± 0.094
CCCAAGCAAUAUUACGUUGG,-3.48 ± 0.14,-2.28 ± 0.13
CUUCAGCAAUAUUACGCUGC,,-1.65 ± 0.18
AGUUAGCAAUAUUACGUACU,-1.16 ± 0.13,-0.298 ± 0.12
GGCAAGCAAUAUUACGCGGC,-3.13 ± 0.28,-2.88 ± 0.41
CAAUAGCAAUAUUACGGCAU,-3.03 ± 0.17,-1.32 ± 0.26
GUUUAGCAAUAUUACGUGGC,-0.884 ± 0.32,-1.46 ± 0.33
CUUGAGCAAUAUUACGCAGU,-2.73 ± 0.23,-2.64 ± 0.37
GGACAGCAAUAUUACGUAUC,-0.918 ± 0.093,-0.855 ± 0.11
GCCUAGCAAUAUUACGAGCC,-1.8 ± 0.15,-1.67 ± 0.23
UCACAGCAAUAUUACGAGGA,-1.73 ± 0.13,-1.65 ± 0.13
